How the values were obtained:
[1] = biological target: TAMRA-labeled UBXN1 UBA(ext1-52) domain (UniProt Q04323); assay: fluorescence polarisation; 5 nM TAMRA-labeled UBA peptide fixed, diubiquitin 0.78 to 25 μM in six steps, triplicate; overnight incubation at 4°C, read at room temperature; 20 mM Tris pH 7.6, 150 mM NaCl, 0.5 mg/ml BGG, 1% TX-100; one site binding (hyperbola) fit
[2] = biological target: TAMRA-labeled UBXN1 UBA(ext1-52) domain (UniProt Q04323); assay: MST; TAMRA-UBA peptide in FP binding buffer, K6 diUb 1.53 to 50 μM, 30 min incubation, hydrophobic capillaries, Monolith NT.115, 30% LED and 40% IR-laser power

Sequence of UniProt Q04323 (Q04323 1-52): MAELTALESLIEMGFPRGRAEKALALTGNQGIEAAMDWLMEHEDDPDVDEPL

Kd [1]: 1.43 µM
Kd [2]: 1.05 µM
Substance: K6-linked diubiquitin (native, unlabeled) (from UniProt P0CG48 1-76; P0CG48 1-76)

Reference: paper PMC6987245
